Data reported in PMC6093632.

Target: full-length human TRPV6 (transient receptor potential vanilloid subfamily member 6) (human)
Assay: cryo-EM structure

full-length human TRPV6 (transient receptor potential vanilloid subfamily member 6) (human), sequence (Q9H1D0 whole entry): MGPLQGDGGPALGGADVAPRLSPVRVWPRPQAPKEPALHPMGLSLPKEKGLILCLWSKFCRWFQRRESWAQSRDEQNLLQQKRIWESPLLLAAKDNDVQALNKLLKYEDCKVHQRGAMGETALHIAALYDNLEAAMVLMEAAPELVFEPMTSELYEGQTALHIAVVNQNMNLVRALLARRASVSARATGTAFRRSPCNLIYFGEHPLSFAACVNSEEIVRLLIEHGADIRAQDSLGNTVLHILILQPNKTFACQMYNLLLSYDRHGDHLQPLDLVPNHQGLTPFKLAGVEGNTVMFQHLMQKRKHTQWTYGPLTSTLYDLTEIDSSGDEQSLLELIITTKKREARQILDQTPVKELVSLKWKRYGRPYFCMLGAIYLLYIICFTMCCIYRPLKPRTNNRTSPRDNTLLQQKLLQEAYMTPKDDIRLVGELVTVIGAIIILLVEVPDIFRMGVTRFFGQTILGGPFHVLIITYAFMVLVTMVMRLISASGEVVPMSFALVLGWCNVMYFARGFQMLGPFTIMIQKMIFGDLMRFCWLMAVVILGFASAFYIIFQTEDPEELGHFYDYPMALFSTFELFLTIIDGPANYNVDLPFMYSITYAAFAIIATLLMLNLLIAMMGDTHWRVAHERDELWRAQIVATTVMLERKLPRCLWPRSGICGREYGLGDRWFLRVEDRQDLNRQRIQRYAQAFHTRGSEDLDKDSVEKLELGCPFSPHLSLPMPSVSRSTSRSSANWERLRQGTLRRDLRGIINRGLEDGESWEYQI

How did the stoichiometry N (CaM molecule per hTRPV6 tetramer) turn out when “human calmodulin (CaM), recombinant (from UniProt P0DP23 1-149) (natural protein)” was run?
The stoichiometry N (CaM molecule per hTRPV6 tetramer) was 1.
